Test results: patent US20250340662A1
pKd: −log10 of the molar value.

What was measured:
FcyR1 = test: SPR
Human v6-peptide (human) [1] = biological target: T1, Human v6-peptide (human); test: SPR SCK, biotin-peptide on SA chip, antibody injected
T1 sequence (peptide, N-terminal biotin): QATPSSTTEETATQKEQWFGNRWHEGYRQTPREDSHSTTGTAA

[2] = biological target: Human CD44v6 iso4-Fc (human) (UniProt P16070); test: SPR SCK, antibody captured via anti-kappa, CD44v6-Fc injected
Human v6-peptide (human) [3] = biological target: T1, Human v6-peptide (human); test: SPR SCK, biotin-peptide on SA chip, antibody injected; apparent KD
[4] = biological target: CD44v6 on cultured cancer cells (BHT-101, ACT-1, A431) (human) (UniProt P16070); test: LigandTracer, 177Lu-antibody on A431 cells
[5] = biological target: Human CD44v6 iso4-Fc (human) (UniProt P16070); test: SPR SCK, antibody captured via anti-kappa, CD44v6-Fc injected; apparent KD

Chain of Human CD44v6 iso4-Fc (human) (P16070 other isoform, or with tags, fused parts or gaps limits assumed): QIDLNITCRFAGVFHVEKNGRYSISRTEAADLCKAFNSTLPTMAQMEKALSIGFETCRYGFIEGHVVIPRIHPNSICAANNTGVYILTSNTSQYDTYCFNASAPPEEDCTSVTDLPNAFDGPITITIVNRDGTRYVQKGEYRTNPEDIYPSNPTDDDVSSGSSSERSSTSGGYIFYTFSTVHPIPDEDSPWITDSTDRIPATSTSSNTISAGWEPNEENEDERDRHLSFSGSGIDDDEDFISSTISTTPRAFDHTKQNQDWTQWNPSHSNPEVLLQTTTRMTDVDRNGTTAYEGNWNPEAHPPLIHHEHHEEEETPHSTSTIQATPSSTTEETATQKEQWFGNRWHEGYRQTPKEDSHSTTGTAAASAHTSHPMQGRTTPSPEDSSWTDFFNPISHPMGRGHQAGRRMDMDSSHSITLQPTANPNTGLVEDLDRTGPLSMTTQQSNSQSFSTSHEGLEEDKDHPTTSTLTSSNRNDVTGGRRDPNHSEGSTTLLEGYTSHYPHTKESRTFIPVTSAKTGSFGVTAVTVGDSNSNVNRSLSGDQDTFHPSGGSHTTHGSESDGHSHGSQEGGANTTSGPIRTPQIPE
Chain of FcyR1 (P12314 16-292): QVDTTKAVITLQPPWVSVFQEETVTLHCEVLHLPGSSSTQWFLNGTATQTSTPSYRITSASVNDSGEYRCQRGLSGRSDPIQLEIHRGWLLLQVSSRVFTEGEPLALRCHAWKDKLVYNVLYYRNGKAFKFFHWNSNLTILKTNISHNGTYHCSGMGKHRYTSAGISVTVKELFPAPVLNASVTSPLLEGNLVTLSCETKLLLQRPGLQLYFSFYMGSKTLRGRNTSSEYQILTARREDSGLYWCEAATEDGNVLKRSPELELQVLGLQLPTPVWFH

pKd (FcyR1)	koff (Human v6-peptide (human) [1])	kon (Human v6-peptide (human) [1])	koff [2]	kon [2]	pKd (Human v6-peptide (human) [3])	pKd [4]	pKd [5]	Substance
9.74	–	–	–	–	–	–	–	Herceptin (antibody)
–	0.00017 s⁻¹	190000 M⁻¹ s⁻¹	0.00031 s⁻¹	6500 M⁻¹ s⁻¹	9.06	9.52	7.32	BIWA-4 IgG4 S228P (antibody)
